# Results reported in article PMC11482875 (bioRxiv, 2024).
# B1: miniTRIM37 RBhcc B-box-2 mutant (other)
# chain: MDEQSVESIAEVFRCFICMEKLRDARLCPHCSKLCCFSCIRRWLTEQRAQCPHCRAPLQLRELVNCRWAEEVTQQLDTLQLCSLTKHEENEKDKCENHHEKLSVFCWTCKKCICAQCADWGGMHGGHTFKPLAEIYEQHVTKVNEEVAKLRRRLMELITERNQVAKRVPKAPPEEKEALIARGKALGEETELLESLLQEVEHQLRSCSKSELISKSSEILMMFQQVHRK
# Biological target: the molecule itself
# Experiment: SEC-MALS
protein,measurement,value
B1,stoichiometry N,2
